Source: US20250064890A1, “PROTEIN COMPOSITIONS FOR THE TREATMENT OF INFLAMMATORY DISEASES” (Unichem Laboratories Limited, priority 2021, published 2025)

Tests used:
[1] = test system: oral (buccal) mucosa cells (TR146); test: Annexin positive cell population against radiation damage; assay type: cell-based, human; settings: for % Apoptotic cells: Annexin positive
Procedure: Oral buccal mucosal cells (TR146) were incubated overnight in 5% CO2 incubator at 37° C. for 24 h. […] After 24 h of treatment, cells were exposed to damage (5-FU 5 mM) for 1.25 h for chemotherapy induced inflammation and exposed to gamma radiation (3.5 kGy) using Cobalt 60 for radiation induced inflammation. After the exposure, the anti-apoptotic effect of SEQ ID NO 2 was determined by restoration of mitochondrial membrane depolarization by JC-1 staining and reduction in apoptotic cell populations (Annexin positive and subG0/G1 cells in cell cycle analysis).
To determine the reduction in apoptotic cell populations using annexin-v staining cells were gently harvested into pre-labeled sterile centrifuge tubes and centrifuged at 300×g for 5-7 min. Supernatant were discarded and the pellet was resuspended in 200 μl of fresh culture medium. 100 μl of cell suspension was transferred into pre-labeled sterile centrifuge tubes. 100 μl of Annexin-V reagent was added to each tube and incubated for 30 min at RT in dark. Cells stained for Annexin-V were then transferred into 96-well plates and acquired on flow cytometer (Guava technologies). Percentage of Annexin-V positive cells was calculated as follows:
={[% Annexin positive cells in 5-FU or radiation alone]−[% Annexin positive cells in (TI+5-FU) or (TI+radiation)]/% Annexin positive cells in 5-FU or radiation alone}*100

[2] = Body weight change in 5-FU induced OM hamsters; assay type: in vivo, golden Syrian hamsters; settings: Day 4 to Day 12, with respect to Day 4
Procedure: In-vivo experiments conducted in healthy golden Syrian hamsters wherein animals were grouped as below:
(§1) To induce OM, animals were administered (except normal control) 5-Fluorouracil (5-FU) by intraperitoneal route at doses of 60 mg/kg & 40 mg/kg respectively on first two days. On Day 4, under anesthesia, with aim of enhancing OM, mechanical irritation of the oral mucosa were done using wire brush. Treatment was initiated from Day 4 to Day 12. For group 3 animals 100 μl of vehicle comprising of standard drug Dexamethasone at 0.1 mg was instilled in buccal cheek pouch. For group 4, 5 and 6 animals 100 μl of vehicle comprising of SEQ ID NO. 2 at 0.25 mg, 0.5 mg & 1 mg, respectively was instilled in buccal cheek pouch. At the end of treatment period, cheek pouch of the hamsters was exposed, Mucositis scoring was carried out and images were captured. The animals were then humanely sacrificed, cheek pouch/jugular mucosa were isolated and used for biomarker estimation and histopathological investigation by using ELISA method and Hematoxylin and Eosin (H&E) staining, respectively.
Body weight of each animal was recorded daily till the end of experiment. Percentage change in body weight of the animals was calculated by using formula with respect to Day 4.

[3] = test system: Interleukin-1β; test: Interleukin-1β in jugular mucosa (ELISA), 5-FU induced OM in hamsters; assay type: in vivo, golden Syrian hamsters; settings: for IL-1β levels, % Decrease vs G2: G2 = OM + Vehicle
Procedure: as §1
(§2) Further, for biomarker estimation jugular mucosa was dissected out, tissue weighed and stored in ice cold 1×PBS. 100 mg of tissue was taken and in 1 ml of 1×PBS buffer. Supernatant of homogenate was used for analysis of TNF-α and Interleukin-1β using ELISA method as per manufacturers instruction. The levels of TNF-α and Interleukin-1β are given in Table 13, FIG. 2 and Table 14, FIG. 3, respectively.

[4] = test system: NF-kB; test: Multiplex analysis, radiotherapy, TR146 cell lysates; assay type: cell-based, human
Procedure: (§3) Oral buccal mucosal cells (TR146) cells were incubated overnight at 37° C. in 5% CO2 incubator. […] The cells were then stimulated with 5-FU (10 mM) for another 24h for chemotherapy and with gamma radiation (3.5 kGy) using Cobalt 60 for radiotherapy. After 24 h, cell culture supernatants were collected from each well and stored at −20° C. till multiplex analysis. For NF-kB estimations, cell lysates were prepared. Levels of biomarkers were estimated using Magpix® multiplex machine. The cells treated with Amifostine (along with 5-FU or radiation) were considered as positive control (PC). Untreated cells (5-FU or radiation alone treated) were used as negative control (NC).
(§4) The percent modulation in each sample was determined as follows:
(§5) [{Concentration of biomarkers (pg/ml) in Control cells (5-FU or radiation alone treated)−Concentration of biomarkers (pg/ml) in SEQ ID NO: 2+5-FU or radiation treated cells)}/Concentration of biomarkers (pg/ml) in Control cells (5-FU or radiation alone treated)]*100

[5] = test system: IL-6; test: Multiplex analysis, chemotherapy (5-FU), TR146; assay type: cell-based, human; settings: for IL-6 against chemotherapy induced levels: 5-FU, in words
Procedure: as §3, §4, §5

[6] = test system: IL-1β; test: Multiplex analysis, chemotherapy (5-FU), TR146; assay type: cell-based, human; settings: for IL-1-β against chemotherapy induced levels: 5-FU, in words
Procedure: as §3, §4, §5

[7] = test system: MMP-3; test: Multiplex analysis, chemotherapy (5-FU), TR146; assay type: cell-based, human; settings: for MMP-3 against chemotherapy induced levels: 5-FU, in words
Procedure: as §3, §4, §5

[8] = test system: IL-12/IL-23p40; test: Multiplex analysis, chemotherapy (5-FU), TR146; assay type: cell-based, human; settings: for IL-12/IL-23p40 against chemotherapy induced levels: 5-FU, in words
Procedure: as §3, §4, §5

[9] = test system: TNF-α; test: TNF-α in jugular mucosa (ELISA), 5-FU induced OM in hamsters; assay type: in vivo, golden Syrian hamsters; settings: for TNF-α levels, % Decrease vs G2: G2 = OM + Vehicle
Procedure: as §1, §2

[10] = 0.01 μg/ml + Radiation (3.5 kGy)
[11] = 0.1 μg/ml + Radiation (3.5 kGy)
[12] = hamsters suffering from OM, in words

B1: SEQ ID NO 2: recombinant lectin, variant of the S. rolfsii lectin amino acid sequence (reported as Rec-2 in WO 2010/095143) (protein)
chain: TYKITVRVYQTNPDAFFHPVEKTVWKYANGGTWTITDDQHVLTMGGSGTSGTLRFHADNGESFTATFGVHNYKRWCDIVTNLAADETGMVINQQYYSQKNREEARERQLSNYQVKNAKGRNFQIVYTEAEGNDLHANLIIG
% Decrease in Apoptotic cells (with respect to radiation control) [1, 10]: −4.8% | % Apoptotic cells [1, 10]: 14.3% | % Decrease in Apoptotic cells (with respect to radiation control) [1, 11]: −7.3% | % Apoptotic cells [1, 11]: 14.7% | % Decrease in Apoptotic cells (with respect to radiation control) ([1]; 1 μg/ml + Radiation (3.5 kGy)): 56% | % Apoptotic cells ([1]; 1 μg/ml + Radiation (3.5 kGy)): 6% | % Decrease in Apoptotic cells (with respect to radiation control) ([1]; 10 μg/ml + Radiation (3.5 kGy)): 62.2% | % Apoptotic cells ([1]; 10 μg/ml + Radiation (3.5 kGy)): 5.1% | % Decrease in Apoptotic cells (with respect to radiation control) ([1]; 10 μg/ml + Radiation (3.5 kGy), listed as SEQ ID NO: 2): 62.6% | decrease of body weight ([2]; G4, 0.25 mg/Animal in buccal cheek pouch): 3.61% | decrease of body weight ([2]; G5, 0.5 mg/Animal in buccal cheek pouch): 4.36% | decrease of body weight ([2]; G6, 1 mg/Animal in buccal cheek pouch): 6.8% | IL-1β levels, Mean ([3]; G4, 0.25 mg/Animal): 79.10 | IL-1β levels, % Decrease vs G2 ([3]; G4, 0.25 mg/Animal): 54.45% | IL-1β levels, Mean ([3]; G5, 0.5 mg/Animal): 105.66 | IL-1β levels, % Decrease vs G2 ([3]; G5, 0.5 mg/Animal): 39.16% | IL-1β levels, Mean ([3]; G6, 1 mg/Animal): 101.96 | IL-1β levels, % Decrease vs G2 ([3]; G6, 1 mg/Animal): 41.29% | levels of IL-1β as compared to the untreated subjects [3, 12]: reduction | Percentage Inhibition NF-kB [4, 10]: 11.8% | Percentage Inhibition NF-kB [4, 11]: 9.9% | Percentage Inhibition NF-kB ([4]; 1 μg/ml + Radiation (3.5 kGy)): 9.9% | Percentage Inhibition NF-kB ([4]; 10 μg/ml + Radiation (3.5 kGy)): 4% | Percentage Inhibition NF-kB ([4]; 25 μg/ml + Radiation (3.5 kGy)): −4% | Percentage Inhibition IL-6 ([5]; 0.1 μg/ml + 5-FU (10 mM)): 5.4% | Percentage Inhibition IL-6 ([5]; 10 μg/ml + 5-FU (10 mM)): 7.8% | Percentage Inhibition IL-6 ([5]; 25 μg/ml + 5-FU (10 mM)): 18.2% | Percentage Inhibition IL-6 ([5]; 50 μg/ml + 5-FU (10 mM)): 38.6% | Percentage Inhibition IL-6 ([5]; 100 μg/ml + 5-FU (10 mM)): 42.2% | IL-6 against chemotherapy induced levels [5]: lowering of levels | IL-6 against chemotherapy induced levels ([5]; listed as test items): downregulation | Percentage Inhibition IL-1β ([6]; 0.1 μg/ml + 5-FU (10 mM)): 5.5% | Percentage Inhibition IL-1β ([6]; 10 μg/ml + 5-FU (10 mM)): 3.6% | Percentage Inhibition IL-1β ([6]; 25 μg/ml + 5-FU (10 mM)): 11% | Percentage Inhibition IL-1β ([6]; 50 μg/ml + 5-FU (10 mM)): 29.1% | Percentage Inhibition IL-1β ([6]; 100 μg/ml + 5-FU (10 mM)): 23.5% | IL-1-β against chemotherapy induced levels [6]: lowering of levels | IL-1-β against chemotherapy induced levels ([6]; listed as test items): downregulation | Percentage Inhibition MMP-3 ([7]; 0.1 μg/ml + 5-FU (10 mM)): 22% | Percentage Inhibition MMP-3 ([7]; 10 μg/ml + 5-FU (10 mM)): 29.5% | Percentage Inhibition MMP-3 ([7]; 25 μg/ml + 5-FU (10 mM)): 30.6% | Percentage Inhibition MMP-3 ([7]; 50 μg/ml + 5-FU (10 mM)): 27.3% | Percentage Inhibition MMP-3 ([7]; 100 μg/ml + 5-FU (10 mM)): 8.8% | MMP-3 against chemotherapy induced levels [7]: lowering of levels | MMP-3 against chemotherapy induced levels ([7]; listed as test items): downregulation | Percentage Inhibition IL-12/IL-23p40 ([8]; 0.1 μg/ml + 5-FU (10 mM)): 13.5% | Percentage Inhibition IL-12/IL-23p40 ([8]; 10 μg/ml + 5-FU (10 mM)): 33.8% | Percentage Inhibition IL-12/IL-23p40 ([8]; 25 μg/ml + 5-FU (10 mM)): 36.8% | Percentage Inhibition IL-12/IL-23p40 ([8]; 50 μg/ml + 5-FU (10 mM)): 42.6% | Percentage Inhibition IL-12/IL-23p40 ([8]; 100 μg/ml + 5-FU (10 mM)): 36.6% | IL-12/IL-23p40 against chemotherapy induced levels [8]: lowering of levels | IL-12/IL-23p40 against chemotherapy induced levels ([8]; listed as test items): downregulation | TNF-α levels, Mean ([9]; G4, 0.25 mg/Animal): 153.48 pg/mL | TNF-α levels, % Decrease vs G2 ([9]; G4, 0.25 mg/Animal): −23.77% | TNF-α levels, Mean ([9]; G5, 0.5 mg/Animal): 155.76 pg/mL | TNF-α levels, % Decrease vs G2 ([9]; G5, 0.5 mg/Animal): −25.61% | TNF-α levels, Mean ([9]; G6, 1 mg/Animal): 79.37 pg/mL | TNF-α levels, % Decrease vs G2 ([9]; G6, 1 mg/Animal): 36.00% | levels of TNF-α as compared to the untreated subjects [9, 12]: reduction
